B1: His6-Tir^23-80 (domain or fragment)
chain: PSQTDGAARGGTGHLISSTGALGSRSLFSPLRNSMADSVDSRDIPGLPTNPSRLAAAT
notes: not shown: His6, N-terminal, kept
B2: His6-Tir^490-550 (domain or fragment)
chain: SGSGPVTGRLIGTPGQGIQSTYALLANSGGLRLGMGGLTSGGESAVSSVNAAPTPGPVRFV
notes: also called C-terminal Tir peptide; not shown: His6, N-terminal, kept

Columns and labels:
[1] = target: T1, CesT (no tag, co-expressed and co-purified with His6-Tir constructs) (enteropathogenic Escherichia coli (EPEC), UniProt P21244 1-156); test: SEC; conditions: both partners purified
T1 construct: also called full-length CesT
T1 sequence (P21244 whole entry): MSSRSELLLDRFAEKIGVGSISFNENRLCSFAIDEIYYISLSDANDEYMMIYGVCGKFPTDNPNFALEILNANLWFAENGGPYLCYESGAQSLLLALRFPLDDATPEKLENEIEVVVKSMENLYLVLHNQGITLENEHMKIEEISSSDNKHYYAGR

[2] = target: T2, CesT^138 (no tag, co-expressed and co-purified with His6-Tir peptides) (enteropathogenic Escherichia coli (EPEC), UniProt P21244 2-138); test: pull-down; conditions: partners not purified
T2 construct: also called CesT^2-138
T2 sequence (P21244 2-138): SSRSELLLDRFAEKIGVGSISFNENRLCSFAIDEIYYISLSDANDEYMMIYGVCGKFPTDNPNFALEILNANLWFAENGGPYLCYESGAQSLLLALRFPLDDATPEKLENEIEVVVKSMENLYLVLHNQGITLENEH

| Binder | binding result [1] | binding result [2] |
| --- | --- | --- |
| GHLISSTGALGSRSLFSPLRNSMADSVDSRDIPGLPTNPSRLA (domain or fragment, not shown: His6, N-terminal, kept) [His6-Tir^35-77] | binds | – |
| B1 | binds | – |
| GGTGHLISSTGALGSRSLFSPLRNSMADSVDSRDIPGLPTNPSRLAAAT (domain or fragment, not shown: His6, N-terminal, kept) [His6-Tir^32-80] | binds | binds |
| B2 | binds | – |
